From US20200148778A1 (JIANGSU HENGRUI MEDICINE, published 2020)

How the values were obtained:
[1] = molecular target: T1, His-tagged mouse CD40 (m-CD40-his) recombinant protein (mouse, UniProt P27512 24-193); assay: ELISA, CD40-his coated
T1 construct: range 24-193; Bought from Acrobiosystems; also called Mouse CD40-his; not shown: His tag

[2] = molecular target: human CD40 on HEK293 cells stably transfected with the human CD40 gene (HEK-Blue CD40L cells) (human, UniProt P25942 21-277); assay: cell-based or functional assay
[3] = molecular target: T2, His-tagged human CD40 (h-CD40-his) recombinant protein (human, UniProt P25942 21-193); assay: ELISA, human CD40-his coated
T2 construct: range 21-193; Bought from Acrobiosystems; also called Human CD40-his; not shown: His tag
Method: (§1) Binding properties of anti-CD40 antibodies was detected by ELISA assay. The CD40 recombinant protein with his-tag was directly used for coating, after the antibody was added, the binding activity of the antibody to the antigen—was detected by adding a secondary antibody (HRP-conjugated anti-antibody Fc antibody) and HRP substrate TMB.
(§2) A 96-well microtiter plate was coated with 100 μl/well of human or rhesus CD40-his protein at a concentration of 0.5 μg/ml and incubated overnight at 4° C. The plate was rinsed three times with rinsing buffer, 250 μl per well. For each rinsing, the plate was shaken for 10 seconds to ensure sufficient cleaning. 200 μl blocking solution was added in each well and incubated for 2 hours at room temperature. Then the plate was washed three times with 250 μl per well. The plate was shaken for 10 seconds in each rinsing to ensure sufficient cleaning. 100 μl of anti-CD40 antibody to be tested diluted in dilution was added to each well, and incubated for 1 hour at room temperature, then rinsing the plate for three times with 250 μl of rinsing buffer per well. 100 μl of HRP-labeled goat anti-human IgG secondary antibody diluted 1:20000 with diluent was added to each well, and incubated for 1 hour at room temperature. Then the plate was washed three times with 250 μl per well. 100 μl of TMB was added to each well and allowed to react for 15 minutes in the dark. 50 μl of 0.16 M sulfuric acid per well was added. The OD value was measured at 450 nm by Thermo MpμltiSkanFc plate reader and the binding EC50 value of the CD40 antibody to […] was calculated.

[4] = molecular target: T3, His-tagged rhesus CD40 (rhesus-CD40-his) recombinant protein (rhesus, UniProt F6SNI1 21-193); assay: ELISA, rhesus CD40-his coated
T3 construct: range 21-193; Bought from Acrobiosystems (# CD0-052H7); not shown: His tag
Method: as §1, §2

[5] = molecular target: T2, His-tagged human CD40 (h-CD40-his) …; assay: Biacore X100, antibody captured by anti-human antibody on CM5 chip, CD40 antigen as analyte, 1:1 model
Text: (§3) Human antibody captured antibody was covalently coupled to CM5 biosensor chip of Biacore instrument (Biacore X100, GE) according to the method described in the description of Human Antibody Capture Kit (Cat. BR-1008-39, GE), thereby capturing a certain amount of chimeric or humanized antibodies to be tested based on affinity. Then a series of concentration gradient CD40 antigens (purchased from Acrobiosystems) flowed through the surface of chip, and Biacore X100 (GE) was used to detect the reaction signals in real time to obtain the binding and dissociation curves. After the completion of each cycle of dissociation, the biochip was rinsed and regenerated with the regeneration solution provided by the Human Antibody Capture Kit. Amine Coupling Kits (Cat. BR-1000-50, GE) were purchased from GE, and the buffer solution HBS-EP+buffer 1× (pH 7.4), which was obtained from HBS-EP+buffer 10× (Cat. BR-1006-69, GE) by dilution with D. I. Water.

[6] = molecular target: T2, His-tagged human CD40 (h-CD40-his) …; assay: Biacore, affinity to human CD40
Text: as §3

T2 sequence (P25942 21-193 limits assumed): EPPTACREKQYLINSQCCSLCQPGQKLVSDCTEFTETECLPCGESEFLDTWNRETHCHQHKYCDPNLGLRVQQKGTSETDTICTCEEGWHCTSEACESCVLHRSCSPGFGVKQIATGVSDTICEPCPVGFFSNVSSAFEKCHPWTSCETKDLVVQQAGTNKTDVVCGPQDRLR
T1 sequence (P27512 24-193 limits assumed): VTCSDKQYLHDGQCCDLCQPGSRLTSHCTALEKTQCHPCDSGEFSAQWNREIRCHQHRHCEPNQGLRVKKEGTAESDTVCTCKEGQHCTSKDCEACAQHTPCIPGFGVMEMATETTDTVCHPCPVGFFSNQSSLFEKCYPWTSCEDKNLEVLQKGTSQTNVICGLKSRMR
Sequence of human CD40 on HEK293 cells stably transfected with the human CD40 gene (HEK-Blue CD40L cells) (P25942 21-277): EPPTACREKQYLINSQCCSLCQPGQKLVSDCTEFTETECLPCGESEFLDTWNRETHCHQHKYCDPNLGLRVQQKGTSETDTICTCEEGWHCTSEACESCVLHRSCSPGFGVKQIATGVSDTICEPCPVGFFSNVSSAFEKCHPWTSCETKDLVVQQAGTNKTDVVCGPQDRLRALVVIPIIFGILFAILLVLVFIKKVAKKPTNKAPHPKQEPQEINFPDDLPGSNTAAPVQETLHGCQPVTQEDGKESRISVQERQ

binding result [1]	HEK293-CD40L cells activity assay EC50 [2] [ng/mL]	EC50 [3] [ng/mL]	EC50 [4] [ng/mL]	Kd [5] [nM]	fold of affinity against the Alligator reference [6] [times]	fold of affinity against the Pfizer reference [6] [times]	Binder
no binding	36.5	12.9	11.8				mouse hybridoma anti-human CD40 antibody 38B4 (antibody, V domains shown, Murine hybridoma antibody) VH: QVRLKQSGAELVRPGASVKVSCKASGYTFTDYYINWVKQRPGQGLEWIAGIYPGTGNTYYNEKFKGKATLTAERSSSTAYMQLTSLTSEDSAVYFCTRRGLPSLCFDYWGQGTTLTVSS VL: DFQMTQTTSSLSASLGDRVTISCSASQGISNYLNWYQQKPDGTVKLLIYYTSSLHSGVPSRFSGSGSGTDYSLTISNLEPEDIATYYCQQYSKLPPTFGGGTKLEIK
		3.68	2.95	11.2			humanized anti-CD40 antibody hu2H6 (H1b heavy chain and L1c light chain) (antibody, human IgG1, kappa, V domains shown, the suffix -11 is not explained; Human IgG1/kappa; also called Hu2H6-11) VH: QVQLVQSGAEVKKPGSSVKVSCKASGYAFSDYLIEWVRQAPGQGLEWMGVINPGSGGSNYNEKIKDRVTLTADKSTSTAYMELSSLRSEDTAVYYCARGGGGFTYWGQGTLVTVSS VL: DIQLTQSPSSLSASVGDRVTITCRASQDISNYLNWYQQKPGKTIKLLLNFASRLHSGVPSRFSGSGSGTDFTFTISSLQPEDIATYYCQQGSTLPWTFGGGTKVEIKR
no binding	15.1	7.06	7.21				mouse hybridoma anti-human CD40 antibody 2H6 (antibody, V domains shown, Murine hybridoma antibody; also called mouse mAb 2H6) VH: QVQLQQSGAELVRPGTSVKVSCKASGYAFSDYLIEWAKQRPGQGLEWIGVINPGSGGSNYNEKIKDRATLTADKSSSTAYMQLSSLTSEDSAVYFCARGGGGFTYWGQGTLVTVSA VL: EIQLTQTTSSLSASLGDRVTISCRASQDISNYLNWYQQKPDGTIKLLLNFASRLHSGVPSRFSGSGSGTDFFLTISNLEQDDIATYFCQQGSTLPWTFGGGTKLEIK
		4.56		3.98			human-mouse chimeric antibody 2H6-C (antibody, V domains shown, Variable regions of murine 2H6 ligated to the constant region of human antibody IgG1; made in HEK293 cells) VH: QVQLQQSGAELVRPGTSVKVSCKASGYAFSDYLIEWAKQRPGQGLEWIGVINPGSGGSNYNEKIKDRATLTADKSSSTAYMQLSSLTSEDSAVYFCARGGGGFTYWGQGTLVTVSA VL: EIQLTQTTSSLSASLGDRVTISCRASQDISNYLNWYQQKPDGTIKLLLNFASRLHSGVPSRFSGSGSGTDFFLTISNLEQDDIATYFCQQGSTLPWTFGGGTKLEIK
no binding	10.9	8.81	9.49				mouse hybridoma anti-human CD40 antibody 14C10 (antibody, V domains shown, Murine hybridoma antibody) VH: QVQVQQSGAELVRPGTSVKVSCKASGYAFTNYLIEWVKQRPGQGLEWIGVINPEFGGTNYNEKFKGKATLTADKSSSTAYMQLSSLTSEDSAVYFCARGGGGFTYWGQGTLVTVSA VL: HIQMTQTTSSLSASLGDRVTISCRASQDISSHLNWYQQKPDGTVKLLISYTSRLHSGVPSRFSGSGSGADYSLTISNLEQEDIATYFCQQGNTLPWTFGGGTKLEIK
no binding	17.1	6	6.7				mouse hybridoma anti-human CD40 antibody 9E5 (antibody, V domains shown, Murine hybridoma antibody; also called mouse 9E5) VH: QVQLQQPGADLVKPGASVKMSCKASGYILTTYWITWVKQRPGQGLEWIGDIHPGSGSTKYNEKFKSKATLTVDTSSSTAYMQLTRLSSEDSAVYYCARRDYWGQGTTLTVSS VL: DVLMTQSPLSLPVSLGDQASISCRSSQNIVNSQGNTYLEWYLQKPGESPKLLIYKVTNRFSGVPDRFSGSGSGTDFTLKISRVEAEDLGVYYCFQASLVPWTFGGGTKLEIK
		1.35		2.68			human-mouse chimeric antibody 9E5-C (antibody, V domains shown, Variable regions of murine 9E5 ligated to the constant region of human antibody IgG1; made in HEK293 cells) VH: QVQLQQPGADLVKPGASVKMSCKASGYILTTYWITWVKQRPGQGLEWIGDIHPGSGSTKYNEKFKSKATLTVDTSSSTAYMQLTRLSSEDSAVYYCARRDYWGQGTTLTVSS VL: DVLMTQSPLSLPVSLGDQASISCRSSQNIVNSQGNTYLEWYLQKPGESPKLLIYKVTNRFSGVPDRFSGSGSGTDFTLKISRVEAEDLGVYYCFQASLVPWTFGGGTKLEIK
		1.65	1.66	5.3	9	3	humanized anti-CD40 antibody hu9E5 (H1c heavy chain and L1a light chain) (antibody, human IgG1, kappa, V domains shown, the suffix -25 is not explained; Human IgG1/kappa; also called Hu9E5-25) VH: QVQLVQSGAEVKKPGASVKVSCKASGYILTTYWITWVRQAPGQGLEWMGDIHPGSGSTKYNEKFKSRVTLTVDTSISTAYMELSRLRSEDTAVYYCARRDYWGQGTTVTVSS VL: DIVMTQSPLSLPVTPGEPASISCRSSQNIVNSQGNTYLEWYLQKPGQSPQLLIYKVTNRFSGVPDRFSGSGSGTDFTLKISRVEAEDVGVYYCFQASLVPWTFGGGTKVEIKR
no binding	14.5	10	9.81				mouse hybridoma anti-human CD40 antibody 1D9 (antibody, V domains shown, Murine hybridoma antibody) VH: QVRLQQSGAELVRPGTSMRVSCKASGYAFTNYLINWVKQRPGQGLEWIGILNPGSGGTNYNENFKDKATLTADKSSNTAYMQLSSLTSEDSAVYFCIRGSPGFAYWGQGTLVTVSA VL: DIQMTQTTSSLSASLGDRVTISCRASQDINIYLNWYQQKPDGTVKLLIYSTSGLHSGVPSRFNGSGSGTDYSLTISNLEQEDIATYFCQQGYTLPYTFGGGTKLEIK
